Results as given in the nanobody polyreactivity screen of Harvey et al. (2022).

test: yeast display, Sf9 membrane polyspecificity reagent, FACS + sequencing; frameworks hold sequencing errors
Procedure, shortened: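 A synthetic nanobody library was expressed on Saccharomyces cerevisiae BJ5465 by galactose induction for 36–48 hours. The library was stained for 1 hour at 4 °C with 10% biotinylated, detergent-solubilized Sf9 membrane reagent and enriched with streptavidin microbeads before FACS. Low and high (top ~1%) gates were set on anti-HA fluorescence for expression and streptavidin fluorescence for reagent binding, and each polyreactivity label reflects the gate of origin.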

Row | Sequence | polyreactivity (PSR sort gate)
1 | QVQLVESGGGLVQAGGSLRLSCAASGQTFDWYAMGWYRQAPGKERELVAAITSVGSTYYADSVKGRFTISRDNAKNSVYLQMNSLKPEDTAVYYCAVEGVIWSFWPYEYWGQGTQVTVSS | high polyreactivity
2 | QVQLVESGGGLVQAGGSLRLSCAASGQTFYYYAMGWYRQAPGKERELVAAINSSGGITFYADSVKGRFTISRDNAKNTVYLQMNSLKPEDTAVYYCAAGGRSKRYVYWGQGTQVTVSS | low polyreactivity
3 | QVQLVESGGGLVQAGGSLRLSCAASGRICTRYMGWYRQAPGKERELVATINWSGGSTYYADSVKGRFTISRDNAKNTVYLQMNSLKPEDTAVYYGNARNVDFYYVQYNGAKIFDYWGQGTQVTVSS | low polyreactivity
4 | QVQLVESGGGLVQAGGSLRLSCAASGRICVINAMGWYRQAPGKERELVATIDRGGSTNYADSVKGRFSISRDNAKNTVYLQMNSLKPEDTAVYYCAAGVVGKRSRTGYYWGQGTQVTVSS | low polyreactivity
5 | QVQLVESGGGLVQAGGSLRLSCAASGRIFAANVMGWYRQAPWKERELVAAISWNGGSTYYADSVKGRFTISRDNAKNTVYLQMNSLKPEDTAVYYCAVRGSYRGWYDYWGQGTQVTVSS | high polyreactivity
6 | QVQLVESGGGLVQAGGSLRLSCAASGRIFADNAMGWYRQAPGKERELVADITYSGGSTYYADSVKGRFTISRDSAKNTVYLQMNSLKPEDTAVYYCAKQGVDYWGQGTQVTVSS | low polyreactivity
7 | QVQLVESGGGLVQAGGSLRLSCAASGRIFADYAMGWYRQAPGKERELVAAISWRGGSRYYADSVKGRFTSSRDNAKNTVYLQMNSLKPEDTAVYYCNKASPADYDYWGQGTQVTVSS | low polyreactivity
8 | QVQLVESGGGLVQAGGSLRLSCAASGRIFAFYAMGWYRQAPGKEREFVAAITYSGGNTNYADSVKGRFTISRDNAKNTVYLQMNSLKPEDTAVYYCAAALVYGVYYQEDYWGQGTQVTVSS | low polyreactivity
9 | QVQLVESGGGLVQAGGSLRLSCAASGRIFAGYAMGWYRQAPGKERELVASIRSSGSTYYADSVKGRFTISRDNAKNTVYLQMNSLKPEDTAVYYCNKYVPYRHLWDYGYWGQGTQVTVSS | high polyreactivity
10 | QVQLVESGGGLVQAGGSLRLSCAASGRIFAGYGMGWYRQAPGKERELVAAISSGGSTYYADSVKGRFTISRDNAKNTVYLQMTSLKPEDTAVYDCATDGQSVPDDYYQNVDYDYWGQGTQVAVSS | low polyreactivity
11 | QVQLVESGGGLVQAGGSLRLSCAASGRIFAGYTMGWYRQAPGKERELVAAISWSGGRTYYADSVKGRFTISRDNAKYTVYLQMNSLKPEDTAVYYCNKVGWYHNYYYWGQGTQVTVSS | high polyreactivity
12 | QVQLVESGGGLVQAGGSLRLSCAASGRIFAGYVMGWYRQAPGKERELVAAISGSGASTYYADSVKGRFTISRDNAKNTVFLQMNSLKPEDTAVYYCAADKPGIVSRFDYWGQGTQVTVSS | low polyreactivity
13 | QVQLVESGGGLVQAGGSLRLSCAASGRIFAHYAMGWYRPAPGKERELVAAISSGGSTYYADSVKGRFTISRDNAKNTVYLQMKSLKPEDTAVYYCNKRPVRRKYDYWGQGTQVTVSS | low polyreactivity
14 | QVQLVESGGGLVQAGGSLRLSCAASGRIFAKNTMGWYRQAPGKERELVAAISRSGGRTYYADSVKGRFTISRDNAKNTVYLQMNSLKPEDTAVYYCSKDVKGSYAYDSWGQGTQVTVSS | high polyreactivity
15 | QVQLVESGGGLVQAGGSLRLSCAASGRIFALYTMGWYIQAPGKERELVAAITTSGGSTYADSVKGRFTISRDNAKNTVYLQMNSLKPEDTAVYYCNAQGYEGLGEFDYWGQGTQLTVSS | low polyreactivity
16 | QVQLVESGGGLVQAGGSLRLSCAASGRIFANNAMGWYRQAPGKEREFVAAINYSGTSTYYADSVKGRFTISRDNAKNTVYLQMNSLKPEDTAVYYCAADLPYYPYLYDYWGQGTQVTVSS | low polyreactivity
17 | QVQLVESGGGLVQAGGSLRLSCAASGRIFAPYAMGWYRQAPGKERELVAAISWRVGSTYYADSVKVRFTISRDYAKNTVYLQMNSLKPDDTAVYYCAARPSYRYDYLGQGTQVTVSS | high polyreactivity
18 | QVQLVESGGGLVQAGGSLRLSCAASGRIFAQYAMGWYRQAPGKERELVAGIDRRGGSTYYADSVKGRFTISRDNAKNTVYLQMNILKPEDTAVYYCAAYGTTGVYRGPGYDYWGQGTQVTVSS | low polyreactivity
19 | QVQLVESGGGLVQAGGSLRLSCAASGRIFAQYAMGWYRQAPVKERELVAGIDRRGGSTYYADSVKGRFTISRDNAKNTVYLQMNSLKPEDTAVYYCAAYGTTGVYRGPGYDYWGQATQVTVSS | low polyreactivity
20 | QVQLVESGGGLVQAGGSLRLSCAASGRIFARNTMGWYRQAPGKERELVAAISWGGGRTYYADSVKGRFTISRDNAKNTVYLQMNSLKPEDTAVFYCAAETLQIPRGEYWGQGTQVTVSS | low polyreactivity
21 | QVQLVESGGGLVQAGGSLRLSCAASGRIFARYAMGWYRQAPGKERELVAAISRGGSTKYADSVKGRFTISRDNAKNTVYLQMNSLKPEDTAVYYCARQLWGSPYGAYYAGDYWGQGTQVTVSS | low polyreactivity

Row | Sequence | polyreactivity (PSR sort gate)
22 | QVQLVESGGGLVQAGGSLRLSCAASGRIFARYAMGWYRQAPGKERELVAAITKSVGSTYYADSVKGRFTNSRDNAKNTVYLQMNSLKPEDTAVYYCNAVARGYGYDYWGQGTQVTVSS | high polyreactivity
23 | QVQLVESGGGLVQAGGSLRLSCAASGRIFARYAMGWYRQAPWKERELVADITTGGSTDYADSVKGRFTISRDNAKNTVYLQMNSLKPEDTAVYYCAKDHHPPGKGQSVSLGYDYWGQGTQVTVSS | low polyreactivity
24 | QVQLVESGGGLVQAGGSLRLSCAASGRIFARYAMRMYRQAPEKERELVDYINSGDNTYYADSVKWRFTISRDNAKNTVYLQMNSLKPDATAVYYCAAVVGRRQSSSSRFEYDYWGQGTQVTVSS | low polyreactivity
25 | QVQLVESGGGLVQAGGSLRLSCAASGRIFASNAMGWYRQAPGKERELVAAIDQGGGSSYYADSVKGRFTISRDNAKNTVYLLMNSLKPEDTAVYYCAADYITAYPRLYNYWGQGTQVTVSS | low polyreactivity
26 | QVQLVESGGGLVQAGGSLRLSCAASGRIFAVNAMGWYRQAPGKERELVAAISWSGGITRYADSVKGRFTISRDNAKNTVYLQMNSLKPEDTAVYYCNASQWPSRFDYWGQGTQVTVSS | low polyreactivity
27 | QVQLVESGGGLVQAGGSLRLSCAASGRIFAVYAMGWYRQAPGKEREFVAAISYSGGITYYADSVKGRFTISRDNAKNTVYLQMNSLKPEDTAVYYCNAYYYFWGQGTQVTVSS | low polyreactivity
28 | QVQLVESGGGLVQAGGSLRLSCAASGRIFAVYAMGWYRQAPGKERELVAAINNGASTNYADSVKGRFTISRDNAKNTVYLQMNSLKPEDTAVYYCAAYGYWGQGTQVTVSS | high polyreactivity
29 | QVQLVESGGGLVQAGGSLRLSCAASGRIFAVYAMGWYRQAPGKERELVAAIRWSGVRTYYADSVKGRFTISRDNAKNTVYLQMNSLKPEDTAVYYCAAEYSGQYYSPVSFLYDYWGQGTQVTVSS | high polyreactivity
30 | QVQLVESGGGLVQAGGSLRLSCAASGRIFAWNAMGCYRQAPGKERELVAGISGSGGSTYYADSVKGRFTISRDNAKNTVYFQMNSLKPEDTAVYYCAARRRYDGWGGYWGQGTQVTVSS | high polyreactivity
31 | QVQLVESGGGLVQAGGSLRLSCAASGRIFAWNAMGWYRQAPGTERELVARIRVSGGRTYYADSVKGRFTISRDNAKNTVYLQMNSLKPEDTAVDYCNAYLRSGSMDYWGQGTQVTVSS | high polyreactivity
32 | QVQLVESGGGLVQAGGSLRLSCAASGRIFAWYAMGWYRQAPGKERELVAAISDSGRSTYYADSVKGRFTISRDNAKNTVYLQMNSLKPEDNAVYYCAADQVVYSAYWCDHYDYWGQGTQVTVSS | low polyreactivity
33 | QVQLVESGGGLVQAGGSLRLSCAASGRIFAYNAMGWSRQAPGKERELVAAITWSGGTTYYADSVKGRFTISRDNAKNTVYLQMNSLKPEDTAVYYCAASRRYGGYRFDYWGQGTQVTVSS | high polyreactivity
34 | QVQLVESGGGLVQAGGSLRLSCAASGRIFAYNAMGWYRQAPGKERELVAAISSSDDDTYYADSVKGRFTISRDNAKNTVYLQMNSLKPEDTAAYYCAAEWDTDRLWAGPRGSLYDYWGQGTQVTVSS | high polyreactivity
35 | QVQLVESGGGLVQAGGSLRLSCAASGRIFAYNARGWYRQAPGKERELVADISSGGNTYYADSVKGRFTISRDNAKNTVYLQMNSLKPEDTAVYYCAADIAWYTHYHRIFDYWGQGTQVTVSS | low polyreactivity
36 | QVQLVESGGGLVQAGGSLRLSCAASGRIFAYNTMGWYRQAPGKERELVAVITSGGSTNYADSVKGRFTISRDNAKNTVYLQMNSLKPEDTAVYYCNADPRLRQTRDYWGQGTQVTVSS | high polyreactivity
37 | QVQLVESGGGLVQAGGSLRLSCAASGRIFAYYAMGWYRQAPGKERELVAAINWSGDGTIYADSVKWRFTISRDNAKNTVYLQMNSLKPQDTAVYYCNADWTSYGFGTRLDYWGQGNQVTVSS | low polyreactivity
38 | QVQLVESGGGLVQAGGSLRLSCAASGRIFAYYAMGWYRQAPGKERELVAAISGGGGSTYYADSVKGRFTISRDNAKNTVYLQMNSLKPEDTAVYYCAARYTVYSATGRYYYWGQGTQVTVSS | high polyreactivity
39 | QVQLVESGGGLVQAGGSLRLSCAASGRIFAYYAMGWYRQAPGKERELVAAISRSGVSTYYADSVKGRFTISRDNAKNTVYLQMNSLKPEDTAVYYCAASWWYEIFDYWGQGTQVTVSS | low polyreactivity
40 | QVQLVESGGGLVQAGGSLRLSCAASGRIFAYYAMGWYRQAPGKERELVATISVTGGSTYYADSVKGRFTISRDNAKNTVYLQMNSLKPEDTAVYYCNVDPGTYWPYSGEDYWGQGTQVTVSS | low polyreactivity
41 | QVQLVESGGGLVQAGGSLRLSCAASGRIFCDNGMGWYRQAPAKESELVTYADSVKGLFTISRDNAKNTVYLQMNSLKPEDTAVYYCNKDPPRFSGLDENYWGQGTQVTVSS | low polyreactivity
